From patent publication US20260265410A1 (UNIVERSITY OF FLORIDA RESEARCH FOUNDATION, published 2026)
Where a chain is given by its changes, count along the chain named.

T1: human Nectin-2 on the cell surface (U937 cells) (human, UniProt Q92692 32-538)
T1 construct: Endogenous Nectin-2 of U937 cells; also called PVRL2; CD112
T1 sequence: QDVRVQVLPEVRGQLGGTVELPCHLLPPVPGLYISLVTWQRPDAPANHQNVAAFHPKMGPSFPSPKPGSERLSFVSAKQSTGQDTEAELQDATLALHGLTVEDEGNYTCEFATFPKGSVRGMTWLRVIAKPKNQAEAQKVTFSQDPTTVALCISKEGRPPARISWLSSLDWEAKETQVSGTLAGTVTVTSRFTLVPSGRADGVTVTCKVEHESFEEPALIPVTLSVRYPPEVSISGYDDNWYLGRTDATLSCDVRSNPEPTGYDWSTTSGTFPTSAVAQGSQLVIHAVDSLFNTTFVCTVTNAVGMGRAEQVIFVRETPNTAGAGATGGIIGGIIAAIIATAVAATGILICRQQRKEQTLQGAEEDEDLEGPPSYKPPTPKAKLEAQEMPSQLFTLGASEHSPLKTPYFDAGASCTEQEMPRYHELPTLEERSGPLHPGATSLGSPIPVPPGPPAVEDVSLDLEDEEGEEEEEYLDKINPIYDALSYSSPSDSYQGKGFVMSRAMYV

T2: human PTPRG extracellular domain (ECD) (residues 20~736 of human PTPRG) fused to hFc (human, UniProt P23470 20-736)
T2 construct: Produced in-house by transient transfection of Expi293 cells; also called hPTPRG-ECD-hFc; hPTPRG-ECD; not shown: human Fc (hFc)
T2 sequence: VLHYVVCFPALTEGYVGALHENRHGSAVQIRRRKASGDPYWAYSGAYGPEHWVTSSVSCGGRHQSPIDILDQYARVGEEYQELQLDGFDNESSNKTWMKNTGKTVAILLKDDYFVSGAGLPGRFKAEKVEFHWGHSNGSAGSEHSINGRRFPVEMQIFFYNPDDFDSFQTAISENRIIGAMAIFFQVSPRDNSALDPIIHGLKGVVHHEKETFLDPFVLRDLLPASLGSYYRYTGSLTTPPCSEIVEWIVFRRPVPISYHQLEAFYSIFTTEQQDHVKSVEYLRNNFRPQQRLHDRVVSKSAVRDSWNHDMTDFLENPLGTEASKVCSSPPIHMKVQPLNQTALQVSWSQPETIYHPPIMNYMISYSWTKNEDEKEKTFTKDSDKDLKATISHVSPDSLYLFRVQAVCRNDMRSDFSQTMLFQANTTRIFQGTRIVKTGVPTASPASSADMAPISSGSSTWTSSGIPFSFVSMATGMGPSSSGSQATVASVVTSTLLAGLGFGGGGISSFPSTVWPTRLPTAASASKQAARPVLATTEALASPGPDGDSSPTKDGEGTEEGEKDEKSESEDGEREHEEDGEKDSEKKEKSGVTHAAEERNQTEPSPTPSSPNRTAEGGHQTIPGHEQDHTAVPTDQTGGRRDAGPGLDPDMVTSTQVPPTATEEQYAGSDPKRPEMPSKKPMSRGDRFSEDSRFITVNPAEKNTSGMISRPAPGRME

T3: mouse PTPRG ECD (amino acid residues 20-733 of mouse PTPRG) fused to hFc (mouse, UniProt Q05909 20-733)
T3 construct: Produced in-house; also called mPTPRG-ECD; Mouse PTPRG-ECD-hFc; not shown: human Fc (hFc)
T3 sequence: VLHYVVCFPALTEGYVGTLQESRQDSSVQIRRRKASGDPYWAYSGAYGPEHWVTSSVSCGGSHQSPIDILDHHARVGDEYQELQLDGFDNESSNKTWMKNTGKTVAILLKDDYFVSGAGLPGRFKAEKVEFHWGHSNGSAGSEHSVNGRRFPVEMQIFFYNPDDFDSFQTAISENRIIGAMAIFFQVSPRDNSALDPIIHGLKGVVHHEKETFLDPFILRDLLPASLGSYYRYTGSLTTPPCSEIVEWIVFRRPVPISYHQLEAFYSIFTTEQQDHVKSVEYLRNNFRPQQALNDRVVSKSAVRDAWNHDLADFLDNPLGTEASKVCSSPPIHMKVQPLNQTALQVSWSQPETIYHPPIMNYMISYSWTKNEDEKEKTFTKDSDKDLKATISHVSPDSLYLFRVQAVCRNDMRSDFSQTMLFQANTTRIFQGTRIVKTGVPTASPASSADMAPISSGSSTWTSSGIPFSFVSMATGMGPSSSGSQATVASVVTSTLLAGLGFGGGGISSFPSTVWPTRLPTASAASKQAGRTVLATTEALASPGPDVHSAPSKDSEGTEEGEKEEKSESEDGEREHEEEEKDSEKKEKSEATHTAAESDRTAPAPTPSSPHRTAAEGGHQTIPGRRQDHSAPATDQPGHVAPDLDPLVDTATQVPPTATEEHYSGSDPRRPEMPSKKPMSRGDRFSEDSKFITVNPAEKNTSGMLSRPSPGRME

T4: N-terminal domain (NTD) of human PTPRG (amino acid residues 20~448 of human PTPRG) (human, UniProt P23470 20-448)
T4 construct: also called hPTPRG-NTD; human PTPRG NTD
T4 sequence: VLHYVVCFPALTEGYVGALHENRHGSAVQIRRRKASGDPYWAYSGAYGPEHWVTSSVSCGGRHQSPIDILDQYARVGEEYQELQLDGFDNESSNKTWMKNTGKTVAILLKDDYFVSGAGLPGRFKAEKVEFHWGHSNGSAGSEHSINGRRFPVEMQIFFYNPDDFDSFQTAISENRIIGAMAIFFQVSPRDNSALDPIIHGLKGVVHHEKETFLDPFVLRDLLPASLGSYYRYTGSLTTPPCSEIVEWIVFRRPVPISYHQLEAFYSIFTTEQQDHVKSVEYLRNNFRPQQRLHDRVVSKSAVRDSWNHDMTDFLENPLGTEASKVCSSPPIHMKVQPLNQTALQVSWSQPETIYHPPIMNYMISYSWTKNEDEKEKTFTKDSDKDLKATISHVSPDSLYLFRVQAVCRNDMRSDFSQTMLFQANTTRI

T5: human CD105-ECD: amino acid residues Met 1-Gly 586 of human CD105 (Sino bio: Cat: 10149-H02H) (human, UniProt P17813 26-586)
T5 construct: Bought; also called hCD105-ECD-hFc; hCD105-hFc
T5 sequence: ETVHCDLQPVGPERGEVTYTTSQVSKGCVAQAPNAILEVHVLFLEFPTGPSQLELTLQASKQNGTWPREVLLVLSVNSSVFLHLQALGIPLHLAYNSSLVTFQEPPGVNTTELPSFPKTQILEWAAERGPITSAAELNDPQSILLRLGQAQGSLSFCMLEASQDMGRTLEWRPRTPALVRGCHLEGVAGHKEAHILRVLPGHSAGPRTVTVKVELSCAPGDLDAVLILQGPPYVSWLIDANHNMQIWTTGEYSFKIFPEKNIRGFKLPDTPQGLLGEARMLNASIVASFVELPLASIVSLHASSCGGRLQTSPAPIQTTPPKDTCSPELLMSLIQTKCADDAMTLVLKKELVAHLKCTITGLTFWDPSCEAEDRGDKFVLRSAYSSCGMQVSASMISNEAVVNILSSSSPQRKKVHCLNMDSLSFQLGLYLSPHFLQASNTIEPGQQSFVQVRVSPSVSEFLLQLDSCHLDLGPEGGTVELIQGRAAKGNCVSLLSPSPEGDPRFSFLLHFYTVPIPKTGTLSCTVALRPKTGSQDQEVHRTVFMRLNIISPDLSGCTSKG

T6: human Nectin-2 extracellular domain (amino acid residues 1-360 of human Nectin-2) fused to hFc (human, UniProt Q92692 32-360)
T6 construct: Bought; also called hNectin-2-ECD-hFc; NECTIN2-ECD-hFc; not shown: human Fc (hFc)
T6 sequence: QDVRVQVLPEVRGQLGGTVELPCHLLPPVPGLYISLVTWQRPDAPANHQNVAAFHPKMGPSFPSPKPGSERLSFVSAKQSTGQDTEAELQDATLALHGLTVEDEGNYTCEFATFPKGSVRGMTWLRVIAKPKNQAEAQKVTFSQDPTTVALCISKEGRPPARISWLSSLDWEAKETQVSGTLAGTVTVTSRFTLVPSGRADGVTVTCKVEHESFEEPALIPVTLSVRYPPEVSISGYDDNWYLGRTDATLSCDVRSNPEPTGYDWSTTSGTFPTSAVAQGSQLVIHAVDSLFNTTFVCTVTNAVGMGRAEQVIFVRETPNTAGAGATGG

B1: Fab_484 (Fab, V domains shown)
VH: AQSLEESGGRLVTPGTPLTLTCTASGFSLSSYHMAWVRQAPGKGLEWIGIISSSGSTYYASWAKGRFTISKTSTTVDLKITSPTTEDTATYFCARGFGWGPNLWGPGTLVTVSS
VL: SFVLTQPASVQVNLGQMVSLTCTADTLSRSYASWYQQKPGQAPVLLIYRDTSRPSGVPDRFSGSTSGNTATLTISGAQAGDEADYYCATDDNSGSSYQYVFGGGTQLTVTG
notes: Chimeric rabbit/human Fab; also called N484
B2: Fab_2810 (Fab, V domains shown)
VH: QEQLEESGGRLVTPGTPLTLTCTASGFSLTNYYMTWVRQAPGKGLEWIGTIYAGTGSTWYASWVKGRFTISKTSTTVDLKITSPTTEDTATYFCVRGYLGWSSGIENIWGPGTLVTVSS
VL: B1 VL with M17T, T65S, D90S, N92G, S96T, Y97F, Q98H, Y99F
notes: Chimeric rabbit/human Fab; also called E2810; mAb_2810

Assays:
[1] = molecular target: T1, human Nectin-2 on the cell surface …; experiment: flow cytometry on whole U937 cells, screen of the 28 clones (Ctrl row = 0); Nectin-2 is named as the antigen on U937 cells only in the later examples
[2] = molecular target: T2, human PTPRG extracellular domain (ECD) …; experiment: ELISA, one condition per Fab and antigen; y axis 0 to 1.8 without name or unit
[3] = molecular target: T3, mouse PTPRG ECD (amino acid residues …); experiment: as above
[4] = molecular target: T4, N-terminal domain (NTD) of human PTPRG …; experiment: as above
[5] = molecular target: T5, human CD105-ECD: amino acid residues …; experiment: ELISA, absorbance at 405 nm, one condition per Fab and antigen
[6] = molecular target: T1, human Nectin-2 on the cell surface …; experiment: competition flow cytometry on U937 cells; competitor of 0.5 µg Alexa 647 labelled Fab_2282
[7] = molecular target: T2, human PTPRG extracellular domain (ECD) …; experiment: ELISA, absorbance at 405 nm, one condition per Fab and antigen
[8] = molecular target: T6, human Nectin-2 extracellular domain …; experiment: as above

Binder | flow cytometry binding value (the table prints no name or unit) [1] | binding result [2] | binding result [3] | binding result [4] | binding result [5] | binding result [6] | binding result [7] | binding result [8]
B1 | 94.8 | no binding | no binding | no binding | no binding | – | – | –
B2 | – | – | – | – | – | no binding (tested: 5 µg) | no binding | no binding
